Experimental data from PMC9482650, “Quantitative fragmentomics allow affinity mapping of interactomes” (Nature Communications, 2022).
One block for each binder: values may come before it.

Assays:
Test in all cases: holdup assay
Design in all cases: key: below the threshold = too weak to quantify, mostly under pKd 3.1 to 4
[1] = target: Inadl_3, Q8NI35
[2] = target: T1, GRIP1_2, Q9Y3R0
T1 sequence (Q9Y3R0 145-248, limits assumed, looked up): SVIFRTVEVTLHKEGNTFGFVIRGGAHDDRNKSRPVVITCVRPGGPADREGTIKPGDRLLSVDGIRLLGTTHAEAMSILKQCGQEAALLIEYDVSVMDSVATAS

[3] = target: Inadl_4, Q8NI35
[4] = target: T2, TX1BP3, O14907
T2 sequence (O14907 10-122, limits assumed, looked up): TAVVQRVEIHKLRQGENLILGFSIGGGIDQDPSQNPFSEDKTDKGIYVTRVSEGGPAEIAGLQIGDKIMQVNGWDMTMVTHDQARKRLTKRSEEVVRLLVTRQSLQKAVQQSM

[5] = target: IL16_4, Q14005
[6] = target: GOPC, Q9HD26
[7] = target: T3, ARHGAP21, Q5T5U3
T3 sequence (Q5T5U3 45-169, limits assumed, looked up): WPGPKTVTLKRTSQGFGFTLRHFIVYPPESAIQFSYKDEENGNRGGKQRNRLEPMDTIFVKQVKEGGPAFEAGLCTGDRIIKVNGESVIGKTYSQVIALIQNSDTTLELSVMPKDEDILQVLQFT

[8] = target: T4, DFNB31_2, Q9P202
T4 sequence (Q9P202 274-371, limits assumed, looked up): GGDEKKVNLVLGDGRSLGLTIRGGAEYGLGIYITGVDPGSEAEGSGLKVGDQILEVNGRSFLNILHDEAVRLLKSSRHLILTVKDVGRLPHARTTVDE

[9] = target: GRASP, Q7Z6J2
[10] = target: HTRA2, O43464
[11] = target: FRMPD2_2, Q68DX3
[12] = target: LAP2, Q96RT1
[13] = target: T5, PARD3B_1, Q8TEW8
T5 sequence (Q8TEW8 196-299, limits assumed, looked up): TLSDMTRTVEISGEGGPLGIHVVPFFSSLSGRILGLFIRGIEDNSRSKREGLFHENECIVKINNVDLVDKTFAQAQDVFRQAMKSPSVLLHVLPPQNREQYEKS

[14] = target: T6, SNTB1, Q13884
T6 sequence (Q13884 107-205, limits assumed, looked up): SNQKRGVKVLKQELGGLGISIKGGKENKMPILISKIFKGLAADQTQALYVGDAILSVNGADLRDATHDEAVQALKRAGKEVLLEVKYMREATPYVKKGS

[15] = target: GRIP2_3, Q9C0E4
[16] = target: DLG5_1, Q8TDM6
[17] = target: DLG2_2, Q15700
[18] = target: T7, SHANK1, Q9Y566
T7 sequence (Q9Y566 658-767, limits assumed, looked up): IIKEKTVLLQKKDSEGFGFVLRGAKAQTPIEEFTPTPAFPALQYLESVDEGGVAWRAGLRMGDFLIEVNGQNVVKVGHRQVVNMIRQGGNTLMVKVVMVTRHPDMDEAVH

[19] = target: T8, MPP2, Q14168
T8 sequence (Q14168 180-250, limits assumed, looked up): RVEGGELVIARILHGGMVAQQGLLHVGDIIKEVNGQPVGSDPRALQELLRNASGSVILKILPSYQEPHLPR

[20] = target: MAGI1_1, Q96QZ7
[21] = target: MAGI2_5, Q86UL8
[22] = target: MAGI3_2, Q5TCQ9
[23] = target: T9, HTRA4, P83105
T9 sequence (P83105 378-476, limits assumed, looked up): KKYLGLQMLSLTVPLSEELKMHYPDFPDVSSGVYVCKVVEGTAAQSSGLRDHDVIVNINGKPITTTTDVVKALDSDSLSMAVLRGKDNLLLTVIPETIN

[24] = target: T10, PDZRN3_1, Q9UPQ7
T10 sequence (Q9UPQ7 244-349, limits assumed, looked up): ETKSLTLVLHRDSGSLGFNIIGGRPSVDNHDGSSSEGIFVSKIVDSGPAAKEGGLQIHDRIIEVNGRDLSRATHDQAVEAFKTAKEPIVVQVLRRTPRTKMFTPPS

[25] = target: NHERF2_2, Q15599
[26] = target: PARD3_3, Q8TEW0
[27] = plain residues with an end cap or a label only (N-terminal biotin on a linker: ado-ado)
[28] = plain residues with an end cap or a label only (N-terminal biotin on a linker: ahx)

GRIP2_3, Q9C0E4, sequence (Q9C0E4 238-339): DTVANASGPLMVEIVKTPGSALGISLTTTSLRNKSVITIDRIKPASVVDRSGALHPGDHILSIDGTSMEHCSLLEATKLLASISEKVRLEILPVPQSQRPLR
MAGI1_1, Q96QZ7, sequence (Q96QZ7 1-106): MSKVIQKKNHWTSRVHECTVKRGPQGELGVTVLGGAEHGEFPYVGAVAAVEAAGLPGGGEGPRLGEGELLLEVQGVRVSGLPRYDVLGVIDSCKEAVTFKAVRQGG
NHERF2_2, Q15599, sequence (Q15599 142-238): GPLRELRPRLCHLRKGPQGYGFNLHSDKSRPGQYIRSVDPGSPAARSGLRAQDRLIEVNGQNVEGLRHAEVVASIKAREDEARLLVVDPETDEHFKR
MAGI3_2, Q5TCQ9, sequence (Q5TCQ9 398-503): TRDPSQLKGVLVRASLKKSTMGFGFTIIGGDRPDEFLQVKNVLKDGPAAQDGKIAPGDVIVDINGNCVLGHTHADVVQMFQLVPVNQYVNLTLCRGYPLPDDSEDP
PARD3_3, Q8TEW0, sequence (Q8TEW0 582-685): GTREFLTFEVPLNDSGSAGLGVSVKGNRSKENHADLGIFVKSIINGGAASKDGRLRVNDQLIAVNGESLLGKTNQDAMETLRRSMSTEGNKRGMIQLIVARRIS
Inadl_4, Q8NI35, sequence (Q8NI35 547-651): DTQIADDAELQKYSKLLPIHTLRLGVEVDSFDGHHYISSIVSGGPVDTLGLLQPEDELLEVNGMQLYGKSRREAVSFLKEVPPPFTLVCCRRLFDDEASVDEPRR
FRMPD2_2, Q68DX3, sequence (Q68DX3 944-1038): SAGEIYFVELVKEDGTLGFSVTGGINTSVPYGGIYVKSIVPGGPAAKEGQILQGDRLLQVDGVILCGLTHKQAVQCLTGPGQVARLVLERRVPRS
DLG5_1, Q8TDM6, sequence (Q8TDM6 617-713): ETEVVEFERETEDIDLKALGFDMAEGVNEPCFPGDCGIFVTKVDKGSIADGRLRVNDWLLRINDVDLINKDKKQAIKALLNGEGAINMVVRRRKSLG
MAGI2_5, Q86UL8, sequence (Q86UL8 915-1017): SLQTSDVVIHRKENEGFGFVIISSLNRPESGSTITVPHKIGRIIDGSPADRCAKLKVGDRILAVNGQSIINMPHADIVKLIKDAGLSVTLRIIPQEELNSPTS
LAP2, Q96RT1, sequence (Q96RT1 other isoform, or with tags, fused parts or gaps): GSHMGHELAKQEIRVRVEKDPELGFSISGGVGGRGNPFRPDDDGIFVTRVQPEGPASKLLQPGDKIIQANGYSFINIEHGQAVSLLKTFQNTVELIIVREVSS
Inadl_3, Q8NI35, sequence (Q8NI35 359-469): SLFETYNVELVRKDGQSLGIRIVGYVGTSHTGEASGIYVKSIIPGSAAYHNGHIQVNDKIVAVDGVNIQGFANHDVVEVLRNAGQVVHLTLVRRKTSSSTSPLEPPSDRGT
HTRA2, O43464, sequence (O43464 355-458): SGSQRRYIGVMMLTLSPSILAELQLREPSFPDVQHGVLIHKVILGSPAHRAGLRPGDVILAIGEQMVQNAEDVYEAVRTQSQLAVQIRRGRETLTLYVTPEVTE
DLG2_2, Q15700, sequence (Q15700 189-283): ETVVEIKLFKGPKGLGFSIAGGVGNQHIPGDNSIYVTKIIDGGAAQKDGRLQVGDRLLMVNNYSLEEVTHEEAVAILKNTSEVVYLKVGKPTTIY
IL16_4, Q14005, sequence (Q14005 1229-1329): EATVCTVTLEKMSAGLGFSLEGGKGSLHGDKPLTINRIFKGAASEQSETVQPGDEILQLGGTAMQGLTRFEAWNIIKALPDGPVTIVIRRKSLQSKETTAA
GRASP, Q7Z6J2, sequence (Q7Z6J2 96-193): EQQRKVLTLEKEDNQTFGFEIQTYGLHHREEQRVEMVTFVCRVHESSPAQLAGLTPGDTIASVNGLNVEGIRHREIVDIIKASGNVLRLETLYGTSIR

pKd [1, 27]: below the threshold
pKd [2, 27]: below the threshold
pKd [3, 27]: below the threshold
pKd [4, 27]: 4.07
pKd [5, 27]: 3.64
pKd [6, 27]: below the threshold
pKd [7, 27]: 3.83
pKd [8, 27]: below the threshold
pKd [9, 27]: below the threshold
pKd [10, 27]: below the threshold
pKd [11, 27]: below the threshold
pKd [12, 27]: 3.48
pKd [13, 27]: below the threshold
pKd [14, 27]: below the threshold
pKd [15, 27]: below the threshold
pKd [16, 27]: below the threshold
pKd [17, 27]: 3.59
pKd [18, 27]: below the threshold
pKd [19, 27]: below the threshold
pKd [20, 27]: below the threshold
pKd [21, 27]: below the threshold
pKd [22, 27]: 4.48
pKd [23, 27]: below the threshold
pKd [24, 27]: below the threshold
pKd [25, 27]: below the threshold
pKd [26, 27]: below the threshold
Binder: TRKRSGEAAV [PFKM, P08237]

pKd [1, 27]: 3.72
pKd [2, 27]: below the threshold
pKd [3, 27]: below the threshold
pKd [4, 27]: 3.73
pKd [5, 27]: below the threshold
pKd [6, 27]: 3.52
pKd [7, 27]: 4
pKd [8, 27]: below the threshold
pKd [9, 27]: 4.31
pKd [10, 27]: below the threshold
pKd [11, 27]: 3.54
pKd [12, 27]: 3.52
pKd [13, 27]: below the threshold
pKd [14, 27]: 3.97
pKd [15, 27]: below the threshold
pKd [16, 27]: below the threshold
pKd [17, 27]: 4.45
pKd [18, 27]: 3.49
pKd [19, 27]: below the threshold
pKd [20, 27]: below the threshold
pKd [21, 27]: 4.09
pKd [22, 27]: 4.52
pKd [23, 27]: 4.29
pKd [24, 27]: 4.46
pKd [25, 27]: 3.48
pKd [26, 27]: below the threshold
Binder: VLYPREGTEV [FOXI1, Q12951]

pKd [1, 27]: below the threshold
pKd [2, 27]: below the threshold
pKd [3, 27]: below the threshold
pKd [4, 27]: 4.06
pKd [5, 27]: 3.6
pKd [6, 27]: 4.3
pKd [7, 27]: 3.95
pKd [8, 27]: below the threshold
pKd [9, 27]: 4.66
pKd [10, 27]: below the threshold
pKd [11, 27]: 4
pKd [12, 27]: 4.02
pKd [13, 27]: 4.03
pKd [14, 27]: 4.37
pKd [15, 27]: below the threshold
pKd [16, 27]: below the threshold
pKd [17, 27]: 4.01
pKd [18, 27]: 5.05
pKd [19, 27]: below the threshold
pKd [20, 27]: below the threshold
pKd [21, 27]: 4.72
pKd [22, 27]: 4.27
pKd [23, 27]: 4.01
pKd [24, 27]: 3.55
pKd [25, 27]: 4.45
pKd [26, 27]: 3.54
Binder: RDPPAEWTRV [PTPN18, Q99952]

pKd [1, 28]: below the threshold
pKd [2, 28]: below the threshold
pKd [3, 28]: below the threshold
pKd [4, 28]: below the threshold
pKd [5, 28]: below the threshold
pKd [6, 28]: below the threshold
pKd [7, 28]: below the threshold
pKd [8, 28]: below the threshold
pKd [9, 28]: below the threshold
pKd [10, 28]: below the threshold
pKd [11, 28]: below the threshold
pKd [12, 28]: below the threshold
pKd [13, 28]: below the threshold
pKd [14, 28]: below the threshold
pKd [15, 28]: below the threshold
pKd [16, 28]: below the threshold
pKd [17, 28]: below the threshold
pKd [18, 28]: below the threshold
pKd [19, 28]: below the threshold
pKd [20, 28]: below the threshold
pKd [21, 28]: below the threshold
pKd [22, 28]: below the threshold
pKd [23, 28]: below the threshold
pKd [24, 28]: below the threshold
pKd [25, 28]: 3.55
pKd [26, 28]: below the threshold
Binder: EKQAKGDTEF [CACYBP, Q9HB71]

pKd [1, 27]: below the threshold
pKd [2, 27]: below the threshold
pKd [3, 27]: below the threshold
pKd [4, 27]: below the threshold
pKd [5, 27]: 3.55
pKd [6, 27]: below the threshold
pKd [7, 27]: below the threshold
pKd [8, 27]: below the threshold
pKd [9, 27]: below the threshold
pKd [10, 27]: below the threshold
pKd [11, 27]: below the threshold
pKd [12, 27]: below the threshold
pKd [13, 27]: 4.89
pKd [14, 27]: below the threshold
pKd [15, 27]: below the threshold
pKd [16, 27]: below the threshold
pKd [17, 27]: below the threshold
pKd [18, 27]: below the threshold
pKd [19, 27]: below the threshold
pKd [20, 27]: below the threshold
pKd [21, 27]: below the threshold
pKd [22, 27]: below the threshold
pKd [23, 27]: 3.49
pKd [24, 27]: below the threshold
pKd [25, 27]: below the threshold
pKd [26, 27]: below the threshold
Binder: MHIQEKGFHV [EPHA6, Q9UF33]

pKd [1, 27]: below the threshold
pKd [2, 27]: 3.68
pKd [3, 27]: below the threshold
pKd [4, 27]: below the threshold
pKd [5, 27]: below the threshold
pKd [6, 27]: below the threshold
pKd [7, 27]: 4.49
pKd [8, 27]: below the threshold
pKd [9, 27]: 4.08
pKd [10, 27]: 3.51
pKd [11, 27]: 3.59
pKd [12, 27]: below the threshold
pKd [13, 27]: 4.35
pKd [14, 27]: below the threshold
pKd [15, 27]: below the threshold
pKd [16, 27]: below the threshold
pKd [17, 27]: below the threshold
pKd [18, 27]: 3.82
pKd [19, 27]: below the threshold
pKd [20, 27]: below the threshold
pKd [21, 27]: 3.51
pKd [22, 27]: below the threshold
pKd [23, 27]: 3.81
pKd [24, 27]: below the threshold
pKd [25, 27]: 4.56
pKd [26, 27]: 5.28
Binder: SLNANEVEWF [RNF130, Q86XS8]
